The target in the test is Galdieria sulphuraria sarcosine dimethylglycine methyltransferase (Galdieria sulphuraria). Nature of the test: SEC. A general note: In gel filtration, larger molecules generally elute earlier.

In general, stoichiometry N refers to a count of units in the complex or per binding partner. “Galdieria sulphuraria sarcosine dimethylglycine methyltransferase (enzyme)” had a stoichiometry N of 2.

These data come from article PMC2742680.
